Test results published in patent publication US20250326865A1, “C-MET PROTEIN-BINDING PEPTIDE COMPLEX” (PeptiDream Inc., priority 2021, published 2025).
Starred links: 1 amine or outer side, 2 acyl side, 3 side chain; linkers in the order of their positions; H or OH if unused. Positions of bridges follow the written chain, without caps; N, C: chain ends. Non-standard residues stand in square brackets, D forms with d. Chains are numbered I, II in the order given. No end group written: not given here. CO(CH2)2(OCH2CH2)17CO = O=C(CCOCCOCCOCCOCCOCCOCCOCCOCCOCCOCCOCCOCCOCCOCCOCCOCCOCCC(=O)[*:2])[*:1]; CO(CH2CH2O)9CH2CH2CO = O=C(CCOCCOCCOCCOCCOCCOCCOCCOCCOCCC(=O)[*:2])[*:1]; PEG12 = NCCOCCOCCOCCOCCOCCOCCOCCOCCOCCOCCOCCOCCC(=O)O; NMeF = CN[C@@H](Cc1ccccc1)C(=O)O; Ahp(2) = CCCCC[C@H](N)C(=O)O; hLys = NCCCCC[C@H](N)C(=O)O; NMeC = CN[C@@H](CS)C(=O)O

B1: Peptide complex No. 30 in Table 4 (peptide SEQ ID NO: 24, GFs_c-Met-00014301p; linker SEQ ID NO: 36) (peptide)
peptide: {CH2CO}-[NMeF]EAVS[NMeF]DPD[Ahp(2)]PRWS[NMeC]
chain: GK[CO(CH2CH2O)9CH2CH2CO]KG
modifications: thioether I:N-I:15 (inferred); also: homodimer of two cyclic peptides joined by linker G-K-cPEG9c-K-G, peptide C-terminus on linker
B2: Peptide complex No. 20 in Table 4 (peptide SEQ ID NO: 11, GFs_c-Met_0012_6p; linker SEQ ID NO: 35) (peptide)
peptide: {CH2CO}-[NMeF]VYVS[NMeF]DPD[Ahp(2)]PRWS[NMeC]
chain: [PEG12]-Lys-[PEG12]
modifications: thioether I:N-I:15 (inferred); also: homodimer: two cyclic peptides joined by linker PEG12c-K-PEG12c, peptide C-terminus on linker
B3: Peptide complex No. 29 in Table 4 (peptide SEQ ID NO: 24, GFs_c-Met-00014301p; linker SEQ ID NO: 38) (peptide)
peptide: {CH2CO}-[NMeF]EAVS[NMeF]DPD[Ahp(2)]PRWS[NMeC]
chain: GK[CO(CH2)2(OCH2CH2)17CO]KG
modifications: thioether I:N-I:15 (inferred); also: homodimer of two cyclic peptides joined by linker G-K-cPEG17c-K-G, peptide C-terminus on linker
B4: GFs c-Met-0012-PEG12 dimer (peptide SEQ ID NO: 2, GFs_c-Met_0012p; linker SEQ ID NO: 35) (peptide)
peptide: {CH2CO}-[NMeF]VYVS[NMeF]DDD[Ahp(2)]PRWS[NMeC]
chain: [PEG12]-Lys-[PEG12]
modifications: thioether I:N-I:15 (inferred); also: homodimer: two cyclic peptides joined by linker PEG12c-K-PEG12c, peptide C-terminus on linker
B5: Peptide complex No. 26 in Table 4 (peptide SEQ ID NO: 22, GFs_c-Met-00014295p; linker SEQ ID NO: 36) (peptide)
peptide: {CH2CO}-[NMeF]EAVS[NMeF]DSD[Ahp(2)]PRWA[NMeC]
chain: GK[CO(CH2CH2O)9CH2CH2CO]KG
modifications: thioether I:N-I:15 (inferred); also: homodimer of two cyclic peptides joined by linker G-K-cPEG9c-K-G, peptide C-terminus on linker
B6: Peptide complex No. 18 in Table 4 (peptide SEQ ID NO: 6, GFs_c-Met_0012_1p; linker SEQ ID NO: 35) (peptide)
peptide: {CH2CO}-[NMeF]TYVS[NMeF]DDD[Ahp(2)]PRWS[NMeC]
chain: [PEG12]-Lys-[PEG12]
modifications: thioether I:N-I:15 (inferred); also: homodimer: two cyclic peptides joined by linker PEG12c-K-PEG12c, peptide C-terminus on linker
B7: Peptide complex No. 21 in Table 4 (peptide SEQ ID NO: 13, GFs_c-Met_0012_8p; linker SEQ ID NO: 35) (peptide)
peptide: {CH2CO}-[NMeF]VYVS[NMeF]DDD[hLys]PRWS[NMeC]
chain: [PEG12]-Lys-[PEG12]
modifications: thioether I:N-I:15 (inferred); also: homodimer: two cyclic peptides joined by linker PEG12c-K-PEG12c, peptide C-terminus on linker
B8: Peptide complex No. 28 in Table 4 (peptide SEQ ID NO: 23, GFs_c-Met-00014298p; linker SEQ ID NO: 36) (peptide)
peptide: {CH2CO}-[NMeF]EAVS[NMeF]DPD[Ahp(2)]PRWA[NMeC]
chain: GK[CO(CH2CH2O)9CH2CH2CO]KG
modifications: thioether I:N-I:15 (inferred); also: homodimer of two cyclic peptides joined by linker G-K-cPEG9c-K-G, peptide C-terminus on linker
B9: Peptide complex No. 22 in Table 4 (peptide SEQ ID NO: 17, GFs_c-Met_0012_12p; linker SEQ ID NO: 35) (peptide)
peptide: {CH2CO}-[NMeF]VYVS[NMeF]DDD[Ahp(2)]PRWA[NMeC]
chain: [PEG12]-Lys-[PEG12]
modifications: thioether I:N-I:15 (inferred); also: homodimer: two cyclic peptides joined by linker PEG12c-K-PEG12c, peptide C-terminus on linker
B10: Peptide complex No. 23 in Table 4 (peptide SEQ ID NO: 9, GFs_c-Met_0012_4p; linker SEQ ID NO: 38) (peptide)
peptide: {CH2CO}-[NMeF]VAVS[NMeF]DDD[Ahp(2)]PRWS[NMeC]
chain: GK[CO(CH2)2(OCH2CH2)17CO]KG
modifications: thioether I:N-I:15 (inferred); also: homodimer of two cyclic peptides joined by linker G-K-cPEG17c-K-G, peptide C-terminus on linker
B11: Peptide complex No. 24 in Table 4 (peptide SEQ ID NO: 9, GFs_c-Met_0012_4p; linker SEQ ID NO: 36) (peptide)
peptide: {CH2CO}-[NMeF]VAVS[NMeF]DDD[Ahp(2)]PRWS[NMeC]
chain: GK[CO(CH2CH2O)9CH2CH2CO]KG
modifications: thioether I:N-I:15 (inferred); also: homodimer of two cyclic peptides joined by linker G-K-cPEG9c-K-G, peptide C-terminus on linker
B12: Peptide complex No. 31 in Table 4 (peptide SEQ ID NO: 25, GFs_c-Met-00014296p; linker SEQ ID NO: 38) (peptide)
peptide: {CH2CO}-[NMeF]QAVS[NMeF]DSD[Ahp(2)]PRWA[NMeC]
chain: GK[CO(CH2)2(OCH2CH2)17CO]KG
modifications: thioether I:N-I:15 (inferred); also: homodimer of two cyclic peptides joined by linker G-K-cPEG17c-K-G, peptide C-terminus on linker
B13: Peptide complex No. 19 in Table 4 (peptide SEQ ID NO: 9, GFs_c-Met_0012_4p; linker SEQ ID NO: 35) (peptide)
peptide: {CH2CO}-[NMeF]VAVS[NMeF]DDD[Ahp(2)]PRWS[NMeC]
chain: [PEG12]-Lys-[PEG12]
modifications: thioether I:N-I:15 (inferred); also: homodimer: two cyclic peptides joined by linker PEG12c-K-PEG12c, peptide C-terminus on linker
B14: Peptide complex No. 25 in Table 4 (peptide SEQ ID NO: 22, GFs_c-Met-00014295p; linker SEQ ID NO: 38) (peptide)
peptide: {CH2CO}-[NMeF]EAVS[NMeF]DSD[Ahp(2)]PRWA[NMeC]
chain: GK[CO(CH2)2(OCH2CH2)17CO]KG
modifications: thioether I:N-I:15 (inferred); also: homodimer of two cyclic peptides joined by linker G-K-cPEG17c-K-G, peptide C-terminus on linker
B15: Peptide complex No. 27 in Table 4 (peptide SEQ ID NO: 23, GFs_c-Met-00014298p; linker SEQ ID NO: 38) (peptide)
peptide: {CH2CO}-[NMeF]EAVS[NMeF]DPD[Ahp(2)]PRWA[NMeC]
chain: GK[CO(CH2)2(OCH2CH2)17CO]KG
modifications: thioether I:N-I:15 (inferred); also: homodimer of two cyclic peptides joined by linker G-K-cPEG17c-K-G, peptide C-terminus on linker
B16: Peptide complex No. 32 in Table 4 (peptide SEQ ID NO: 25, GFs_c-Met-00014296p; linker SEQ ID NO: 36) (peptide)
peptide: {CH2CO}-[NMeF]QAVS[NMeF]DSD[Ahp(2)]PRWA[NMeC]
chain: GK[CO(CH2CH2O)9CH2CH2CO]KG
modifications: thioether I:N-I:15 (inferred); also: homodimer of two cyclic peptides joined by linker G-K-cPEG9c-K-G, peptide C-terminus on linker

Biological target: human c-Met protein (human, UniProt P08581 25-1390)
Test: cell-based or functional assay

Chain of human c-Met protein (P08581 25-1390): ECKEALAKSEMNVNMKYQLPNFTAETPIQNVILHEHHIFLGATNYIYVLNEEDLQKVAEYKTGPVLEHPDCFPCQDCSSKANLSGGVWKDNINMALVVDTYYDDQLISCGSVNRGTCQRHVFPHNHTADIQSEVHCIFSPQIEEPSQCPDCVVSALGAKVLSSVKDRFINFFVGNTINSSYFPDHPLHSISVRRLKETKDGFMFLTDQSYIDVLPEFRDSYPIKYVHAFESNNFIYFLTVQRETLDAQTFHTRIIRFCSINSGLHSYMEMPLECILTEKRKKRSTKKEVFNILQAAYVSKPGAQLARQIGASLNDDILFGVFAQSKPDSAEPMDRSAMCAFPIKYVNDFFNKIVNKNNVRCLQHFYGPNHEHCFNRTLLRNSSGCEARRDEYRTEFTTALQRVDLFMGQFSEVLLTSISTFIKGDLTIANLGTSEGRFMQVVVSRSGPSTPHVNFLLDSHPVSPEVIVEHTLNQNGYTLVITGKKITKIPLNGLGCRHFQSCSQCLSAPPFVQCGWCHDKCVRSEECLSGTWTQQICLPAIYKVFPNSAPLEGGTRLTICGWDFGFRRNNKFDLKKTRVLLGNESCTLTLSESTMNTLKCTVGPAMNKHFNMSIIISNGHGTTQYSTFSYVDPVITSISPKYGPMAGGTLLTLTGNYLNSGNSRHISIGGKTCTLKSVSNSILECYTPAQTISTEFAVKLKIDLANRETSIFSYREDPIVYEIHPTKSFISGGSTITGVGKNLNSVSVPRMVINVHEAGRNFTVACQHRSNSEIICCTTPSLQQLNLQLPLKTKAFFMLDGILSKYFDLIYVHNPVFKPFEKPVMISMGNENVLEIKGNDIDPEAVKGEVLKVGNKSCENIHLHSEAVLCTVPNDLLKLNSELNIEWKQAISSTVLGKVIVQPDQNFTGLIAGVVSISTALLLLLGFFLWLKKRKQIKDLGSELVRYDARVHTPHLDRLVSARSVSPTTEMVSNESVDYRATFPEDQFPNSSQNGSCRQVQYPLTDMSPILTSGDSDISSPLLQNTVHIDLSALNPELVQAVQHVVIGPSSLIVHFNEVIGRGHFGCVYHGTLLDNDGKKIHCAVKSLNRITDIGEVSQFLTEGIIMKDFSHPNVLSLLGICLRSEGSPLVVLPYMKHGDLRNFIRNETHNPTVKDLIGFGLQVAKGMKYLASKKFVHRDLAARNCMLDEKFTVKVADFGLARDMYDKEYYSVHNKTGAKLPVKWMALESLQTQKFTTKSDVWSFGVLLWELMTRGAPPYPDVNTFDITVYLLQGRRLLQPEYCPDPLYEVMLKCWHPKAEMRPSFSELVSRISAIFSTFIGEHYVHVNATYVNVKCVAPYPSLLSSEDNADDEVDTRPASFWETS

Row | Binder | C-Met Agonist Activity (C50; nM): phospho-c-Met AlphaLISA, A431 cells [nM]
1 | B1 | 0.81
2 | B2 | 2.22
3 | B3 | 0.88
4 | B4 | 0.76
5 | B5 | 0.75
6 | B6 | 1.31
7 | B7 | 2.17
8 | B8 | 1.24
9 | B9 | 2.37
10 | B10 | 0.91
11 | B11 | 1.27
12 | B12 | 0.68
13 | B13 | 1.22
14 | B14 | 0.81
15 | B15 | 2.37
16 | B16 | 0.61
